One block for each binder: values may come before it.
Columns and labels:
[1] = molecular target: T1, Human NKp46 recombinant protein (human, UniProt O76036 22-258); assay: SPR (Biacore T100), bispecific captured on Protein-A chip, soluble recombinant human NKp46
T1 construct: also called recombinant human NKp46 proteins
Protocol: SPR measurements were performed on a Biacore T100 apparatus (Biacore GE Healthcare) at 25° C. In all Biacore experiments HBS-EP+ (Biacore GE Healthcare) and NaOH 10 mM served as running buffer and regeneration buffer respectively. Sensorgrams were analyzed with Biacore T100 Evaluation software. Protein-A was purchased from (GE Healthcare). Human NKp46 recombinant proteins were cloned, produced and purified at Innate Pharma.
(§1) The chip surface was activated with EDC/NHS (N-ethyl-N′-(3-dimethylaminopropyl) carbodiimidehydrochloride and N-hydroxysuccinimide (Biacore GE Healthcare)). Protein-A was diluted to 10 μg/ml in coupling buffer (10 mM acetate, pH 5.6) and injected until the appropriate immobilization level was reached (i.e. 2000 RU). Deactivation of the remaining activated groups was performed using 100 mM ethanolamine pH 8 (Biacore GE Healthcare).
Seven serial dilutions of human NKp46 recombinant proteins, ranging from 6.25 to 400 nM were sequentially injected over the captured Bi-Specific antibodies and allowed to dissociate for 10 min before regeneration. The entire sensorgram sets were fitted using the 1:1 kinetic binding model.

[2] = molecular target: T2, Human CD64 (human, UniProt P12314 16-288, limits assumed); assay: SPR (Biacore T100), bispecific immobilised on CM5 chip, soluble CD64 0.7-60 nM, 1:1 kinetic model
T2 construct: also called FcγRI
Protocol: (§2) SPR measurements were performed on a Biacore T100 apparatus (Biacore GE Healthcare) at 25° C. In all Biacore experiments HBS-EP+ (Biacore GE Healthcare) and 10 mM NaOH, 500 mM NaCl served as running buffer and regeneration buffer respectively. Sensorgrams were analyzed with Biacore T100 Evaluation software. Recombinant human FcR's (CD64, CD32a, CD32b, CD16a and CD16b) were cloned, produced and purified.
as §1, with “Bispecific antibodies were” for “Protein-A was”, “[…]” for “μg/ml”, “800 to 900” for “2000”
(§3) Monovalent affinity study was assessed following a classical kinetic wizard (as recommended by the manufacturer). Serial dilutions of soluble analytes (FcRs) ranging from 0.7 to 60 nM for CD64 and from 60 to 5000 nM for all the other FcRs were injected over the immobilized bispecific antibodies and allowed to dissociate for 10 min before regeneration. The entire sensorgram sets were fitted using the 1:1 kinetic binding model for CD64 and with the Steady State Affinity model for all the other FcRs.

[3] = molecular target: T3, Human CD16a (human, UniProt P08637 17-208); assay: SPR (Biacore T100), bispecific immobilised on CM5 chip, soluble FcR 60-5000 nM, Steady State Affinity model
T3 construct: also called FcγRIIIa
Protocol: as §2
as §1, with “Bispecific antibodies were” for “Protein-A was”, “[…]” for “μg/ml”, “800 to 900” for “2000”
as §3

[4] = molecular target: T4, Human CD32a (human, UniProt P12318 36-218, limits assumed); assay: as above
T4 construct: also called FcγRIIA
T4 sequence (looked up): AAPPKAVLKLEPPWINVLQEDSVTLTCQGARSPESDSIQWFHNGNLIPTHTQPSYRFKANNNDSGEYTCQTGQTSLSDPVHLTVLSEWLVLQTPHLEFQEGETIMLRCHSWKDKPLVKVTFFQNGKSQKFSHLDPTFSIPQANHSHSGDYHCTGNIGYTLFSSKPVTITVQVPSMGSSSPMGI
Protocol: as §2
as §1, with “Bispecific antibodies were” for “Protein-A was”, “[…]” for “μg/ml”, “800 to 900” for “2000”
as §3

[5] = molecular target: T5, Human CD32b (human, UniProt P31994 46-217, limits assumed); assay: as above
T5 construct: also called FcγRIIB
T5 sequence (looked up): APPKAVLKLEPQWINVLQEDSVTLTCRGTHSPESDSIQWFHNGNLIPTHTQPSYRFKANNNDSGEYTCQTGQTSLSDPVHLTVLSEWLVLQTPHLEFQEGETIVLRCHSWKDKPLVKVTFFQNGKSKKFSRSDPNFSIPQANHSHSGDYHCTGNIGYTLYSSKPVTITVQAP
Protocol: as §2
as §1, with “Bispecific antibodies were” for “Protein-A was”, “[…]” for “μg/ml”, “800 to 900” for “2000”
as §3

[6] = molecular target: T6, Human CD16b (human, UniProt O75015 17-200); assay: as above
T6 construct: also called FcγRIIIb
Protocol: as §2
as §1, with “Bispecific antibodies were” for “Protein-A was”, “[…]” for “μg/ml”, “800 to 900” for “2000”
as §3

[7] = molecular target: T3, Human CD16a; assay: SPR (Biacore T100), bispecific immobilised on CM5 chip, soluble FcR
Protocol: as §2
as §1, with “Bispecific antibodies were” for “Protein-A was”, “[…]” for “μg/ml”, “800 to 900” for “2000”
as §3

[8] = molecular target: T4, Human CD32a; assay: as above
Protocol: as §2
as §1, with “Bispecific antibodies were” for “Protein-A was”, “[…]” for “μg/ml”, “800 to 900” for “2000”
as §3

[9] = molecular target: T2, Human CD64; assay: as above
Protocol: as §2
as §1, with “Bispecific antibodies were” for “Protein-A was”, “[…]” for “μg/ml”, “800 to 900” for “2000”
as §3

[10] = molecular target: T5, Human CD32b; assay: as above
Protocol: as §2
as §1, with “Bispecific antibodies were” for “Protein-A was”, “[…]” for “μg/ml”, “800 to 900” for “2000”
as §3

[11] = molecular target: T6, Human CD16b; assay: as above
Protocol: as §2
as §1, with “Bispecific antibodies were” for “Protein-A was”, “[…]” for “μg/ml”, “800 to 900” for “2000”
as §3

T2 sequence (P12314 16-288 limits assumed): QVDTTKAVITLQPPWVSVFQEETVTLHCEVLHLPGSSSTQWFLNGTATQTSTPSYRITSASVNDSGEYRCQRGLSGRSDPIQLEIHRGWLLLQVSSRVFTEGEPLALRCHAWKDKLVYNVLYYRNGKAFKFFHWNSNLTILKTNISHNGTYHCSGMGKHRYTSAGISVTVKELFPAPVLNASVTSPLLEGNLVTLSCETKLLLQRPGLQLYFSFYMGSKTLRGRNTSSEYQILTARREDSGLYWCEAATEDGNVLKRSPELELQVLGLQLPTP
T3 sequence (P08637 17-208 limits assumed): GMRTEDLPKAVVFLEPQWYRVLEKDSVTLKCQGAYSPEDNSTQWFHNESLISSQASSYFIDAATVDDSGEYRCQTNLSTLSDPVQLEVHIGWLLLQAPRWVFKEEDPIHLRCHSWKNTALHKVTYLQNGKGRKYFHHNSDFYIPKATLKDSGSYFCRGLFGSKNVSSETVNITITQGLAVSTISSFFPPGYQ
T6 sequence (O75015 17-200 limits assumed): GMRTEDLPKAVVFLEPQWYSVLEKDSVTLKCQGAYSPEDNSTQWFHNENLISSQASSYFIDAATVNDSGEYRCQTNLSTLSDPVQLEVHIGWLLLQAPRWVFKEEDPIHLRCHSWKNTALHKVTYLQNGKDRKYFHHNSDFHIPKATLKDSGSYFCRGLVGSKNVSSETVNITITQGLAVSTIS
T1 sequence (O76036 22-258 Q82K limits assumed): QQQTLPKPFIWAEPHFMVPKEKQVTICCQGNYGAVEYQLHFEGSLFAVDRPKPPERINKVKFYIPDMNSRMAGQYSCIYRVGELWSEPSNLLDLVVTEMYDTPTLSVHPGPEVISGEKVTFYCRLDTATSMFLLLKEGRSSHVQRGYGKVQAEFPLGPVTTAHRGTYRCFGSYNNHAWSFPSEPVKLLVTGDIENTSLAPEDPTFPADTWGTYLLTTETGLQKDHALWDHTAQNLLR

binding result [1]: no binding
B1: CD19-F1-NKp46-6 (bispecific antibody)
chain: DIQLTQSPASLAVSLGQRATISCKASQSVDYDGDSYLNWYQQIPGQPPKLLIYDASNLVSGIPPRFSGSGSGTDFTLNIHPVEKVDAATYHCQQSTEDPWTFGGGTKLEIKGGGGSGGGGSGGGGSQVQLQQSGAELVRPGSSVKISCKASGYAFSSYWMNWVKQRPGQGLEWIGQIWPGDGDTNYNGKFKGKATLTADESSSTAYMQLSSLASEDSAVYFCARRETTTVGRYYYAMDYWGQGTTVTVSSGGGSSAPELLGGPSVFLFPPKPKDTLMISRTPEVTCVVVDVSHEDPEVKFNWYVDGVEVHNAKTKPREEQYNSTYRVVSVLTVLHQDWLNGKEYKCKVSNKALPAPIEKTISKAKGQPREPQVYTKPPSREEMTKNQVSLSCLVKGFYPSDIAVEWESNGQPENNYKTTVPVLDSDGSFRLASYLTVDKSRWQQGNVFSCSVMHEALHNHYTQKSLSLSPGSTGSQVQLQQPGSVLVRPGASVKLSCKASGYTFTSSWMHWAKQRPGQGLEWIGHIHPNSGISNYNEKFKGKATLTVDTSSSTAYVDLSSLTSEDSAVYYCARGGRFDDWGAGTTVTVSSVEGGSGGSGGSGGSGGVDDIVMTQSPATLSVTPGDRVSLSCRASQSISDYLHWYQQKSHESPRLLIKYASQSISGIPSRFSGSGSGSDFTLSINSVEPEDVGVYYCQNGHSFLMYTFGGGTKLEIK
notes: Single chain F1 format, complete mature protein

Kd [2]: 0.0007 µM | Kd [3]: 1.1 µM | Kd [4]: 0.846 µM | Kd [5]: 1.85 µM | Kd [6]: 2.43 µM
B2: CD19-F5-NKp46-3 (bispecific antibody, human IgG1, kappa)
chain 1: not shown
chain 2: not shown
chain 3: DIVMTQSPATLSVTPGDRVSLSCRASQSISDYLHWYQQKSHESPRLLIKYASQSISGIPSRFSGSGSGSDFTLSINSVEPEDVGVYYCQNGHSFPLTFGAGTKLELKASTKGPSVFPLAPSSKSTSGGTAALGCLVKDYFPEPVTVSWNSGALTSGVHTFPAVLQSSGLYSLSSVVTVPSSSLGTQTYICNVNHKPSNTKVDKRVEPKSCDKTH

binding result [7]: no binding (tested: 60 to 5000 nM) | binding result [8]: no binding (tested: 60 to 5000 nM) | binding result [9]: no binding (tested: 0.7 to 60 nM) | binding result [10]: no binding (tested: 60 to 5000 nM) | binding result [11]: no binding (tested: 60 to 5000 nM)
B3: CD19-F6-NKp46-3 (bispecific antibody, human IgG1, kappa)
chain 1: not shown
chain 2: not shown
chain 3: DIVMTQSPATLSVTPGDRVSLSCRASQSISDYLHWYQQKSHESPRLLIKYASQSISGIPSRFSGSGSGSDFTLSINSVEPEDVGVYYCQNGHSFPLTFGAGTKLELKASTKGPSVFPLAPSSKSTSGGTAALGCLVKDYFPEPVTVSWNSGALTSGVHTFPAVLQSSGLYSLSSVVTVPSSSLGTQTYICNVNHKPSNTKVDKRVEPKSCDKTH
